Assay results as given in the RNAGym collection of RNA variant scans (doi:10.1093/molbev/msab373).

B1: Azoarcus group I ribozyme (parent)
chain: GUGCCUUGCGCCGGGAAACCACGCAAGGGAUGGUGUCAAAUUCGGCGAAACCUAAGCGCCCGCCCGGGCGUAUGGCAACGCCGAGCCAAGCUUCGGCGCCUGCGCCGAUGAAGGUGUAGAGACUAGACGGCACCCACCUAAGGCAAACGCUAUGGUGAAGGCAUAGUCCAGGGAGUGGCGAAAGUCACACAAACCGG

Variants of: B1
Experiment: reverse-splicing fitness (ratio to wild type); higher = more active; in vitro selection; Mg2+ level not given
In short: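 An in vitro group I ribozyme library with randomized positions was T7-transcribed and gel-purified. In triplicate, 10 pmol RNA in EPPS pH 7.5 was reacted with 50 pmoles of a 30-nt RNA substrate for 1 h at 37 °C across several added MgCl2 levels (1–48 mM), then stopped with EDTA. Products were reverse transcribed from a substrate-complementary primer, PCR-amplified and sequenced (HiSeq 4000). Fitness is a variant's read proportion after selection over that before, normalised to wild type.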
With C82G A111U A120C A145C C150A C169A U176C the reverse-splicing fitness was 0.0121. Work on C82G A111G A145G C169U yielded a reverse-splicing fitness of 0.0129. C82G A111G A145G C169A showed a reverse-splicing fitness of 0.00875. In the case of C82G A111G A145G C169G, the reverse-splicing fitness is reported as 0.0101. Work on C82G A111G A145U C150U C169G U176C yielded a reverse-splicing fitness of 0.0152. Variant C82G A111G A145U C150U C169G U176G has a reverse-splicing fitness of 0.00611. Work on C82G A111G A145U C150U C169G U176A yielded a reverse-splicing fitness of 0.0142. C82G A111G A145U C150A C169U U176G gave a reverse-splicing fitness of 0.00554. C82G A111G A145U C150A C169U U176C gave a reverse-splicing fitness of 0.0148. In the case of C82G A111G A145U C150A C169U U176A, the reverse-splicing fitness is reported as 0.0141. With C82G A111U A120C A145U C150A U176G the reverse-splicing fitness was 0.00705. Variant C82G A111U A120C A145U C150A U176C has a reverse-splicing fitness of 0.018. C82G A111U A120C A145U C150A U176A gave a reverse-splicing fitness of 0.0101. In the case of C82G A111G C150G U176A, the reverse-splicing fitness is reported as 0.0136. Variant C82G A111G C150G U176G has a reverse-splicing fitness of 0.00548. In the case of C82G A111G C150G U176C, the reverse-splicing fitness is reported as 0.0225. In the case of C82G A111U A120C, the reverse-splicing fitness is reported as 0.0483. Work on C82G A111G A145U U176C yielded a reverse-splicing fitness of 0.28. Work on C82G A111G A145U U176G yielded a reverse-splicing fitness of 0.136. Work on C82G A111G A145U U176A yielded a reverse-splicing fitness of 0.257. Work on C82G A111U A120C A145C C150A U176C yielded a reverse-splicing fitness of 0.0127. For C82G A111U A120C A145C C150A U176A, the reverse-splicing fitness was 0.0111. In the case of C82G A111U A120C A145C C150A U176G, the reverse-splicing fitness is reported as 0.0066. C82G A111U A120C A145C C150G U176A gave a reverse-splicing fitness of 0.00451. With C82G A111U A120C A145C C150G U176G the reverse-splicing fitness was 0.00354. C82G A111U A120C A145C C150G U176C gave a reverse-splicing fitness of 0.00843. Variant C82G A111U A120C A145U C150U C169U U176G has a reverse-splicing fitness of 0.00575. For C82G A111U A120C A145U C150U C169U U176A, the reverse-splicing fitness was 0.0134. In the case of C82G A111U A120C A145U C150U C169U U176C, the reverse-splicing fitness is reported as 0.0137. With C82G A111U A120C A145G C150A C169U U176G the reverse-splicing fitness was 0.00802. Work on C82G A111U A120C A145G C150A C169U U176C yielded a reverse-splicing fitness of 0.0159. Work on C82G A111U A120C A145G C150A C169U U176A yielded a reverse-splicing fitness of 0.0148. In the case of C82G A111G C150U C169U U176G, the reverse-splicing fitness is reported as 0.00785. Variant C82G A111G C150U C169U U176C has a reverse-splicing fitness of 0.0172. Work on C82G A111G C150U C169U U176A yielded a reverse-splicing fitness of 0.0147. In the case of C82G A111G A145G C169A U176C, the reverse-splicing fitness is reported as 0.0235. C82G A111G A145G C169A U176A showed a reverse-splicing fitness of 0.0158. C82G A111G A145G C169A U176G showed a reverse-splicing fitness of 0.0057. C82G A111U A120C A145C gave a reverse-splicing fitness of 0.0408. Variant C82G A111U A120C A145G has a reverse-splicing fitness of 0.0543. C82G A111U A120C A145U gave a reverse-splicing fitness of 0.0517. C82G A111G A145G C150U C169U U176A gave a reverse-splicing fitness of 0.0152. C82G A111G A145G C150U C169U U176G showed a reverse-splicing fitness of 0.00678. For C82G A111G A145G C150U C169U U176C, the reverse-splicing fitness was 0.0151. Work on C82G A111G A145G C150U C169U yielded a reverse-splicing fitness of 0.0137. Work on C82G A111G A145G C150U C169G yielded a reverse-splicing fitness of 0.0106. C82G A111U A120C A145C C150A C169A showed a reverse-splicing fitness of 0.01. In the case of C82G A111U A120C A145C C150A C169U, the reverse-splicing fitness is reported as 0.01. Work on C82G A111U A120C A145C C150A C169G yielded a reverse-splicing fitness of 0.00886. C82G A111G C150G C169G U176G showed a reverse-splicing fitness of 0.00613. For C82G A111G C150G C169G U176C, the reverse-splicing fitness was 0.00922. With C82G A111G C150G C169G U176A the reverse-splicing fitness was 0.0106. Variant C82G A111U A120C A145U C150U U176A has a reverse-splicing fitness of 0.015. Work on C82G A111U A120C A145U C150U U176C yielded a reverse-splicing fitness of 0.0247. In the case of C82G A111G A145G C169G U176A, the reverse-splicing fitness is reported as 0.016. C82G A111G A145G C169G U176C gave a reverse-splicing fitness of 0.0231. C82G A111G A145G C169G U176G showed a reverse-splicing fitness of 0.00505. Variant C82G A111U A120C A145U C150A C169G U176G has a reverse-splicing fitness of 0.00638. Work on C82G A111U A120C A145U C150A C169G U176C yielded a reverse-splicing fitness of 0.0247. C82G A111U A120C A145U C150A C169G U176A gave a reverse-splicing fitness of 0.0207. C82G A111U A120C A145U C150U C169G U176A gave a reverse-splicing fitness of 0.016. C82G A111U A120C A145U C150U C169G U176C gave a reverse-splicing fitness of 0.0194. Variant C82G A111U A120C A145U C150U C169G U176G has a reverse-splicing fitness of 0.00568. C82G A111U A120C A145C C169A U176C showed a reverse-splicing fitness of 0.00941. With C82G A111U A120C A145C C169A U176G the reverse-splicing fitness was 0.00544. Variant C82G A111U A120C A145C C169A U176A has a reverse-splicing fitness of 0.0193. For C82G A111G A145G U176G, the reverse-splicing fitness was 0.0821. With C82G A111G A145G U176A the reverse-splicing fitness was 0.25. Variant C82G A111G A145G U176C has a reverse-splicing fitness of 0.27. Work on C82G A111G C150U C169G U176G yielded a reverse-splicing fitness of 0.00611. C82G A111G C150U C169G U176C showed a reverse-splicing fitness of 0.0201. Work on C82G A111G C150U C169G U176A yielded a reverse-splicing fitness of 0.0165. For C82G A111G C150G C169A, the reverse-splicing fitness was 0.00975. Variant C82G A111G C150G C169U has a reverse-splicing fitness of 0.0107. C82G A111G C150G C169G showed a reverse-splicing fitness of 0.00817. For C82G A111U A120C A145U C150G C169G, the reverse-splicing fitness was 0.00772. Variant C82G A111U A120C A145U C150G C169A has a reverse-splicing fitness of 0.00911. With C82G A111U A120C A145U C150G C169U the reverse-splicing fitness was 0.00954. C82G A111U A120C A145G C169G U176C gave a reverse-splicing fitness of 0.0281. C82G A111U A120C A145G C169G U176A gave a reverse-splicing fitness of 0.0187. C82G A111U A120C A145G C169G U176G showed a reverse-splicing fitness of 0.00543. For C82G A111G C150A, the reverse-splicing fitness was 0.0393. For C82G A111G C150G, the reverse-splicing fitness was 0.0256. With C82G A111G C150U the reverse-splicing fitness was 0.199.
